koff and Kd data for three molecules are collected here from PMC8635433 (2021).

Common to all, as to experiment: SPR
A general note: Surface plasmon resonance follows binding to a sensor surface in real time, without labels.

The target in assay [1] is T1, coxsackie and adenovirus receptor (CAR), immobilised for SPR (UniProt P78310 20-365).
T1 chain: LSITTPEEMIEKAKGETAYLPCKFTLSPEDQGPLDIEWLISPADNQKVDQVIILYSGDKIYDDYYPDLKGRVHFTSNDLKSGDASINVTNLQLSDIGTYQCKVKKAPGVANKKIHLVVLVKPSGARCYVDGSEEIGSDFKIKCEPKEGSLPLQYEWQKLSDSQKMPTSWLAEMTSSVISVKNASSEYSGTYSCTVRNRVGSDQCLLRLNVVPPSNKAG

Assay [2] concerns the target T2, CD46, immobilised for SPR (UniProt P15529 35-392).
T2 chain: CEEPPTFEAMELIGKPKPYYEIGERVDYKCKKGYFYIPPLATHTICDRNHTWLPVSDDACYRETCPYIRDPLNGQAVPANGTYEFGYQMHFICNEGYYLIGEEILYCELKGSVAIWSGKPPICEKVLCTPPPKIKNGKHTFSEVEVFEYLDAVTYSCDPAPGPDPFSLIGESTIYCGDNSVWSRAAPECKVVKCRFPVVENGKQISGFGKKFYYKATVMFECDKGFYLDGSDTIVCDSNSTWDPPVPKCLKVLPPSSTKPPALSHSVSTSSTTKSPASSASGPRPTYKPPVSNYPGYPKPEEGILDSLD

Assay [3] addresses T2, CD46, immobilised for SPR.

B1: ChAdOx1 fiber knob protein (domain or fragment)
chain: GALTAGNKEDDKLTLWTTPDPSPNCQLLSDRDAKFTLCLTKCGSQILGTVAVAAVTVGSALNPINDTVKSAIVFLRFDSDGVLMSNSSMVGDYWNFREGQTTQSVAYTNAVGFMPNLGAYPKTQSKTPKNSIVSQVYLNGETTMPMTLTITFNGTDEKDTTPVSTYSMTFTWQWTGDYKDKNITFATNSFTFSYMAQE
As usually defined, the koff is a measure of how fast the partners let go of each other. Read a low koff as a long-lived complex. In assay [1], B1 displayed a koff of 0.00018 s⁻¹.

B2: HAdV-C5 fiber knob protein (domain or fragment)
chain: TGAITVGNKNNDKLTLWTTPAPSPNCRLNAEKDAKLTLVLTKCGSQILATVSVLAVKGSLAPISGTVQSAHLIIRFDENGVLLNNSFLDPEYWNFRNGDLTEGTAYTNAVGFMPNLSAYPKSHGKTAKSNIVSQVYLNGDKTKPVTLTITLNGTQETGDTTPSAYSMSFSWDWSGHNYINEIFATSSYTFSYIAQE
For the molecule B2, the koff in assay [1] stood at 0.000109 s⁻¹.

B3: HAdV-B35 fiber knob protein (domain or fragment)
chain: FNNGDICIKDSINTLWTGINPPPNCQIVENTNTNDGKLTLVLVKNGGLVNGYVSLVGVSDTVNQMFTQKTANIQLRLYFDSSGNLLTEESDLKIPLKNKSSTATSETVASSKAFMPSTTAYPFNTTTRDSENYIHGICYYMTSYDRSLFPLNISIMLNSRMISSNVAYAIQFEWNLNASESPESNIATLTTSPFFFSYITEDDN
By Kd is commonly meant a measure of binding affinity in units of concentration. Molecule B3 returned a koff in assay [2] of 0.000994 s⁻¹. For the same molecule, the Kd in assay [3] was 4.38 nM.
